Experimental data from patent publication US20210324080A1 (JIANGSU HUAIYU PHARMACEUTICAL, published 2021).
One block for each binder: values may come before it.

Assays:
[1] = target: T1, monkey CTLA-4, full length, on transfected HEK293 cells (monkey); test: FACS, 293F-cCTLA-4 cells
T1 construct: whole, on cells; also called cCTLA-4; HEK293-cCTLA-4
From the text: The pIRES plasmid with the monkey-derived CTLA-4 full-length gene was transfected into the HEK293 cell line to construct a HEK293 stable cell line containing monkey CTLA-4 (herein referred to as HEK293-cCTLA-4 stable cell line), wherein the database accession number of the monkey CTLA-4 nucleotide sequence is XM_005574014.1. The HEK293-hCTLA-4 stable cell line and HEK293-cCTLA-4 stable cell line were expanded in a T-75 cell culture flask to a 90% confluence. The medium was aspirated, and the cells were washed with HBSS buffer (Hanks Balanced Salt Solution, purchased from Invitrogen) twice, then treated with an enzyme-free cell dissociation fluid (Versene solution, purchased from Life technology) and the cells were collected. The cells were washed with HBSS buffer twice. After counted, the cells were diluted with HBSS buffer to 2×10⁶ cells per ml, added with 1% goat serum blocking solution, wherein the percentage was the mass percantage. Cells were incubated on ice for 30 minutes, then washed twice with HBSS buffer by centrifugation. The collected cells were suspended in the FACS buffer (HBSS containing 1% BSA, wherein the percentage was the mass percantage) to 2×10⁶ cells/ml, added as 100 microliters per well to a 96-well FACS reaction plate, added with 100 microliters per well of the purified CTLA-4 antibody sample to be tested, incubated on ice for 2 hours. The plate was washed twice with the FACS buffer by centrifugation, added with 100 microliters of fluorescent (Alexa 488)-labeled secondary antibodies (purchased from Invitrogen) per well, and incubated on ice for 1 hour. The plate was washed 3 times with FACS buffer by centrifugation, added with 100 μl fixative solution [4% (v/v) Paraformaldehyde] per well to suspend the cells. 10 minutes later, it was washed 2 times with FACS buffer by centrifugation. The cells were suspended with 100 microliters of FACS buffer, FACS (FACS Calibur, purchased from BD) was used for detection and the results were analyzed.

[2] = target: T2, human CTLA-4 (Y201V), full length, on transfected cells (human, UniProt P16410 36-223); test: FACS, CHOK1-hCTLA-4 cells
T2 construct: whole, on cells; also called hCTLA-4; HEK293-hCTLA-4 (Y201V)
T2 sequence (looked up): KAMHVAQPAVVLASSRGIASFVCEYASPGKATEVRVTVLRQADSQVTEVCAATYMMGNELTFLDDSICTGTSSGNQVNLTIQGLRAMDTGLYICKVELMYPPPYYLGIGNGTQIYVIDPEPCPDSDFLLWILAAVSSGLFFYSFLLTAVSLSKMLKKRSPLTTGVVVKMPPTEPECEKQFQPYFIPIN

[3] = target: T3, CTLA-4-hFc (immunogen A; hFc-labeled CTLA-4 extracellular domain protein) (human, UniProt P16410 36-161); test: ELISA, coated CTLA-4-hFc, competitor biotin-B7.1-hFc
T3 construct: range 36-161; Made in HEK293 cells, purified on protein A; also called CLTA-4-hFc; CTLA-4 protein; not shown: human IgG Fc fragment (hFc) of the pCpC vector
T3 sequence (looked up): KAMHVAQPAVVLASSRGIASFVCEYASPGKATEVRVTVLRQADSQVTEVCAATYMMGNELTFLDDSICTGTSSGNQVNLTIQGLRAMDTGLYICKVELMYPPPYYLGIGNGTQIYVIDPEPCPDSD
Description: (§1) CTLA-4 extracellular domain protein (CTLA-4-hFc) was diluted with PBS to a final concentration of 1.0 μg/mL, and then added to a 96-well ELISA plate as 100 μl per well. The plate was covered with a plastic film and incubated overnight at 4° C. The plate was washed twice with plate washing solution [PBS containing 0.01% (v/v) Tween 20] on the next day, and added with blocking solution [PBS containing 0.01% (v/v) Tween 20 and 1% (w/w) BSA] and blocked at room temperature for 2 hours. […] After 2 hours, the plate was washed 3 times with a plate washing solution [PBS containing 0.01% (v/v) Tween 20]. HRP (horseradish peroxidase) labeled avidin diluent (purchased from Sigma) was added 100 microliters per well, and after the plate was incubated for 2 hours at 37° C., it was washed with plate washing solution [PBS containing 0.01% (v/v) Tween 20] for 3 times. […] TMB substrate was added to each well. After incubated at room temperature for 30 minutes, the plate was added with […] stop solution (1.0N HCl) to each well. An ELISA plate reader (SpectraMax 384plus, Molecular Device) was used to read the A450 nm value.

[4] = target: T3, CTLA-4-hFc (immunogen A; hFc-labeled …); test: ELISA, coated CTLA-4-hFc, competitor biotin-B7.2-hFc
Description: as §1

[5] = target: T3, CTLA-4-hFc (immunogen A; hFc-labeled …); test: competition ELISA: CTLA-4-hFc coated, antibody titrated, blocked ligand biotin-labeled B7.1-hFc, HRP-avidin, A450, inhibition (%)
Description: as §1

[6] = target: T3, CTLA-4-hFc (immunogen A; hFc-labeled …); test: competition ELISA: CTLA-4-hFc coated, antibody titrated, blocked ligand biotin-labeled B7.2-hFc, HRP-avidin, A450, inhibition (%)
Description: as §1

MFI at 0.000128 nM [1]: 2.4
MFI at 0.0128 nM [1]: 23
MFI at 0.064 nM [1]: 68.6
MFI at 0.32 nM [1]: 219
MFI at 1.6 nM [1]: 421
MFI at 8 nM [1]: 619
MFI at 40 nM [1]: 626
MFI at 200 nM [1]: 643
MFI at 0.07 nM [2]: 43.3
MFI at 0.67 nM [2]: 146
MFI at 6.67 nM [2]: 403
MFI at 66.67 nM [2]: 449
Inhibition rate (%) at 0.00091 nM [3]: 0%
Inhibition rate (%) at 0.091 nM [3]: 12.7%
Inhibition rate (%) at 0.274 nM [3]: 40%
Inhibition rate (%) at 0.823 nM [3]: 63.1%
Inhibition rate (%) at 2.5 nM [3]: 75.2%
Inhibition rate (%) at 7.4 nM [3]: 80.7%
Inhibition rate (%) at 22.2 nM [3]: 87.5%
Inhibition rate (%) at 66.7 nM [3]: 89.7%
Inhibition rate (%) at 0.00091 nM [4]: 0%
Inhibition rate (%) at 0.091 nM [4]: 5.3%
Inhibition rate (%) at 0.274 nM [4]: 26.4%
Inhibition rate (%) at 0.823 nM [4]: 53.3%
Inhibition rate (%) at 2.5 nM [4]: 66.6%
Inhibition rate (%) at 7.4 nM [4]: 76.6%
Inhibition rate (%) at 22.2 nM [4]: 84.6%
Inhibition rate (%) at 66.7 nM [4]: 88.7%
IC50 (read off the curve) [5]: ~0.3 nM
IC50 (read off the curve) [6]: ~0.5 nM
B1: 40C4C6 (chimeric antibody purified from hybridoma supernatant) (antibody, V domains shown)
VH: QVQLVESGGGVVQPGRSLRLSCAASGFTFSSYGMHWVRQAPGKGLEWVAVIWYDGRNKYYADSVKGRFTISRDNSKNTLYLQMNSLRAEDTAVYYCARASGSYSYYFDYWGQGTLVTVSS
VL: DIQMTQSPSSLSASVGGRVTITCRASQSISSFLNWYQHELGKAPKLLIYGASSLQSGVPSRFSGSGSGTDFTLTISSLQPEDFATYYCQQTYSTPFTFGPGTKVDIK
notes: also called mAb09; mAb009

MFI at 0.000128 nM [1]: 2.4
MFI at 0.0128 nM [1]: 34.3
MFI at 0.064 nM [1]: 97.7
MFI at 0.32 nM [1]: 261
MFI at 1.6 nM [1]: 455
MFI at 8 nM [1]: 654
MFI at 40 nM [1]: 712
MFI at 200 nM [1]: 668
MFI at 0.07 nM [2]: 27.6
MFI at 0.67 nM [2]: 95
MFI at 6.67 nM [2]: 386
MFI at 66.67 nM [2]: 469
Inhibition rate (%) at 0.00091 nM [3]: 0%
Inhibition rate (%) at 0.091 nM [3]: 1.7%
Inhibition rate (%) at 0.274 nM [3]: 25.7%
Inhibition rate (%) at 0.823 nM [3]: 72.2%
Inhibition rate (%) at 2.5 nM [3]: 87.7%
Inhibition rate (%) at 7.4 nM [3]: 89.6%
Inhibition rate (%) at 22.2 nM [3]: 93.6%
Inhibition rate (%) at 66.7 nM [3]: 94.4%
Inhibition rate (%) at 0.00091 nM [4]: 0%
Inhibition rate (%) at 0.091 nM [4]: -8.8%
Inhibition rate (%) at 0.274 nM [4]: 17.1%
Inhibition rate (%) at 0.823 nM [4]: 60.2%
Inhibition rate (%) at 2.5 nM [4]: 83.6%
Inhibition rate (%) at 7.4 nM [4]: 89.9%
Inhibition rate (%) at 22.2 nM [4]: 92.1%
Inhibition rate (%) at 66.7 nM [4]: 92.8%
IC50 (read off the curve) [5]: ~0.4 nM
IC50 (read off the curve) [6]: ~0.5 nM
B2: 31C12F3 (chimeric antibody purified from hybridoma supernatant) (antibody, V domains shown)
VH: QVQLVESGGGVVQPGRSLILSCAASGFTFSSYGMHWVRQAPGKGLEWVAVVWYDGSNKYYADSVKGRFTISRDNSKNTLYLQMSSLRAEDTAVYYCARGGIVVPGLFEYWGQGSLVTVSS
VL: DIQMTQSPSSLSASVGDRVAITCRTSQSISNLLNWYQQKPGKAPELLIYAPSSFQSGVPSRFRGSGSGTDFTLTISSLQPEDFATYYCQQSYSTPFTFGPGTKVDIK
notes: also called mAb010
